Eight molecules from publication doi:10.1101/2025.03.04.641557 (bioRxiv, 2025) can be followed below.

The target in experiment [1] is HA-tagged MIDN^△α-Helix-C (human) (UniProt Q504T8). In words: co-IP.
For experiment [2], the target named is human 26S proteasome (proteasome holoenzyme: 20S core particle with 19S regulatory particle) (human, UniProt P35998;P62191;P43686;P62333;P17980;P62195;Q13200;Q99460;O43242;O00232;O00231;Q15 …). The experiment can be described thus: pull-down.

Changes are numbered by the printed parent chain. Names and notes keep the numbering of the source.

In experiment [1], “Flag-tagged RPN11 (from UniProt O00487 1-310) (enzyme)” came in with a reduction of binding relative to WT MIDN of 60%.

B1: 3X-Flag tagged full length human MIDN^WT (midnolin, 468-aa isoform) (natural protein)
chain: MEPQPGGARSCRRGAPGGACELGPAAEAAPMSLAIHSTTGTRYDLAVPPDETVEGLRKRLSQRLKVPKERLALLHKDTRLSSGKLQEFGVGDGSKLTLVPTVEAGLMSQASRPEQSVMQALESLTETQVSDFLSGRSPLTLALRVGDHMMFVQLQLAAQHAPLQHRHVLAAAAAAAAARGDPSIASPVSSPCRPVSSAARVPPVPTSPSPASPSPITAGSFRSHAASTTCPEQMDCSPTASSSASPGASTTSTPGASPAPRSRKPGAVIESFVNHAPGVFSGTFSGTLHPNCQDSSGRPRRDIGTILQILNDLLSATRHYQGMPPSLAQLRCHAQCSPASPAPDLAPRTTSCEKLTAAPSASLLQGQSQIRMCKPPGDRLRQTENRATRCKVERLQLLLQQKRLRRKARRDARGPYHWSPSRKAGRSDSSSSGGGGSPSEASGLGLDFEDSVWKPEVNPDIKSEFVVA
With B1, the binding result in experiment [2] is “binds”.

B2: 3X-Flag tagged full length human MIDN N385A (purified) (natural protein)
chain: B1 chain with N385A
In the case of B2, the binding result in experiment [2] is recorded as “binds”.

B3: 3X-Flag tagged full length human MIDN R406A (purified) (natural protein)
chain: B1 chain with R406A
With B3, the binding result in experiment [2] was “binds”.

B4: 3X-Flag tagged full length human MIDN K391A (purified) (natural protein)
chain: B1 chain with K391A
On to B4, for which the binding result in experiment [2] was “binds”.

B5: 3X-Flag tagged full length human MIDN R403A (purified) (natural protein)
chain: B1 chain with R403A
As to B5, the binding result in experiment [2] is on record as “binds”.

B6: 3X-Flag tagged full length human MIDN L399K (purified) (natural protein)
chain: B1 chain with L399K
As for B6, the binding result in experiment [2] is reported as “binds”.

B7: 3X-Flag tagged full length human MIDN L395K (purified) (natural protein)
chain: B1 chain with L395K
Consider B7, for which the binding result in experiment [2] was “binds”.
